Experimental data reported in patent US20210277102A1, “COMPOSITIONS AND METHODS FOR TREATING A TUMOR SUPPRESSOR DEFICIENT CANCER” (BETH ISRAEL DEACONESS MEDICAL CENTER, INC., priority 2016, published 2021).

B1: CXCL17: recombinant mouse CXCL17 (BioLegend #585402); chemokine ligand of GPR35 (protein, UniProt Q5UW37 23-119, looked up)
C-X-C motif chemokine 17: SPNPGVARSHGDQHLAPRRWLLEGGQECECKDWFLQAPKRKATAVLGPPRKQCPCDHVKGREKKNRHQKHHRKSQRPSRACQQFLKRCHLASFALPL
B2: CXCL5: recombinant mouse CXCL5 (BioLegend #573302) (protein, UniProt P50228 41-132, looked up)
C-X-C motif chemokine 5: APSSVIAATELRCVCLTVTPKINPKLIANLEVIPAGPQCPTVEVIAKLKNQKEVCLDPEAPVIKKIIQKILGSDKKKAKRNALAVERTASVQ

Columns and labels:
mouse GPR35 = mouse GPR35 (Mus musculus, UniProt Q9ES90); conditions: in vitro; cited from earlier work
Chain of mouse GPR35 (Q9ES90 whole entry): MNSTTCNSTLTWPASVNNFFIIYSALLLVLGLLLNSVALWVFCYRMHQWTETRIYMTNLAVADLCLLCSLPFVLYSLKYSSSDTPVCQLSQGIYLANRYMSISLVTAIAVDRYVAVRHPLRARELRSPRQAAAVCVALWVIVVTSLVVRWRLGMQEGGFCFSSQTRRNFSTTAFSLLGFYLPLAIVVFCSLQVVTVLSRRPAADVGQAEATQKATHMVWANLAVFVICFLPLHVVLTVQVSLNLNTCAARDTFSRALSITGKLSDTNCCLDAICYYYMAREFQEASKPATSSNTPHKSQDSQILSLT

prostate cancer = conditions: phase III clinical trial in prostate cancer, unselected patients; cited from earlier work
GPR35 [1] = molecular target: T1, GPR35 (Homo sapiens, UniProt Q9HC97); conditions: in vitro; cited from earlier work
Target sequence in this assay (Q9HC97 whole entry): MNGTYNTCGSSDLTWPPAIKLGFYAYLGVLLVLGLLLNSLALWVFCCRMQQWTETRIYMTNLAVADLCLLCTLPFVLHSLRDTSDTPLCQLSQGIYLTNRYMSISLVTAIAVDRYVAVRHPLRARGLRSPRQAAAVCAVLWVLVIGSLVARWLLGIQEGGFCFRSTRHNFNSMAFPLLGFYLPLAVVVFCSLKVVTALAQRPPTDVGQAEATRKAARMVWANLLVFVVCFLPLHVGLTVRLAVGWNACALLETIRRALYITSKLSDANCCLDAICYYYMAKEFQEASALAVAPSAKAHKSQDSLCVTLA

[2] = system: monocytes isolated from the bone marrow of healthy mice; assay: Transwell migration assay with recombinant proteins, monocytes; format: cell-based, mouse; conditions: increasing concentration of recombinant protein in bottom well
Text: (§1) Gr1+ cells and monocytes were isolated from the bone marrow (tibias and femurs) of C57BL/6 wild type, 3 months old mice using the MACS Myltenyi Biotec Cell Isolation system according to the manufacturer's instruction. For monocytes isolation the Monocyte Isolation Kit (BM) (Miltenyi 130-100-629) was used, whereas Gr1 positive cells were isolated using the antibody Anti-Gr-1-Biotin, clone RB6-8C5 (Miltenyi 130-101-894). Red blood cells were lysed with the ACK lysis buffer (ThermoFisher Scientific A1049201). Total bone marrow cells and Gr1+ cells were cultured for 4 days. Briefly, 40 ng/ml GM-CSF (PeproTech #315-03) and 40 ng/ml IL-6 (PeproTech #216-16) were added to the control medium RPMI 1640 (ThermoFisher Scientific 11875-093), supplemented with penicillin-streptomycin, 10% FBS, 10 mM HEPES, 20 μM 2-Mercaptoethanol. Either recombinant mouse CXCL5 (BioLegend #573302) or recombinant mouse CXCL17 (BioLegend #585402) was added at the beginning of the experiment (200 nM). For the migration assay 2.5×10^5 MACS sorted cells were resuspended in 100 μL of either RPMI 1640 control medium or organoid complete medium and placed on the upper well of the transwell system (5 μm, Corning #160241). […] The migration of cells was quantified by flow cytometry, 15 seconds acquisition time, using BD LSR II flow cytometer.

[3] = system: Gr1+ cells isolated from the bone marrow of healthy mice; assay: Transwell migration assay with recombinant proteins, Gr1+ cells; format: cell-based, mouse; conditions: Gr1+ cells mostly Ly6G+/Ly6C^int PMN cells; increasing concentration of recombinant protein
Text: as §1

[4] = system: whole bone marrow (BM) mouse cells and Gr1+ cells isolated from the BM; assay: 4-day culture of bone marrow and Gr1+ cells in GM-CSF, IL-6 medium plus recombinant chemokine (flow analysis, qRT-PCR); format: cell-based; conditions: 4 days culture, GM-CSF and IL-6, recombinant chemokine 200 nM
Text: Gr1+ cells and monocytes were isolated from the bone marrow (tibias and femurs) of C57BL/6 wild type, 3 months old mice using the MACS Myltenyi Biotec Cell Isolation system according to the manufacturer's instruction. For monocytes isolation the Monocyte Isolation Kit (BM) (Miltenyi 130-100-629) was used, whereas Gr1 positive cells were isolated using the antibody Anti-Gr-1-Biotin, clone RB6-8C5 (Miltenyi 130-101-894). Red blood cells were lysed with the ACK lysis buffer (ThermoFisher Scientific A1049201). Total bone marrow cells and Gr1+ cells were cultured for 4 days. Briefly, 40 ng/ml GM-CSF (PeproTech #315-03) and 40 ng/ml IL-6 (PeproTech #216-16) were added to the control medium RPMI 1640 (ThermoFisher Scientific 11875-093), supplemented with penicillin-streptomycin, 10% FBS, 10 mM HEPES, 20 μM 2-Mercaptoethanol. Either recombinant mouse CXCL5 (BioLegend #573302) or recombinant mouse CXCL17 (BioLegend #585402) was added at the beginning of the experiment (200 nM). For the migration assay 2.5×10^5 MACS sorted cells were resuspended in 100 μL of either RPMI 1640 control medium or organoid complete medium and placed on the upper well of the transwell system (5 μm, Corning #160241). The migration assay with recombinant proteins was performed by adding to the bottom well 600 μL of RMPI1640 control medium supplemented with the indicated amount of either CXCL5 or CXCL17. The migration assay with organoid conditioned medium was performed by adding to the bottom well 600 μL of medium collected over 5 days of culture of prostate organoids with the indicated genotype. The migration of cells was quantified by flow cytometry, 15 seconds acquisition time, using BD LSR II flow cytometer.
For Flow Cytometry, spleen and lymph node single cell suspensions were prepared by mashing the tissue in 2% FBS/PBS. Tumor and control prostate tissue (from anterior lobes) single cell suspension was prepared by mincing the tumor and digestion with Collagenase Type I (Life Technologies #17018029) in 10% DMEM (GIBCO) for 1 hr at 37° C. Cell suspensions were passed through […] cell strainers to obtain single cell suspensions. Blood samples and single cell suspensions were re-suspended in 1-2 ml of ACK red cell lysis buffer (GIBCO) and lysed on ice for 1 minute. Cell suspensions were then washed in 2% FBS/PBS, centrifuged and re-suspended in 0.5-1 ml of 2% FBS/PBS. For flow cytometry, 100 μl of cell suspension was stained in a 96-well U-bottom plate and the following antibodies were used: CD45.2-Pacific Blue (BioLegend #109820), CD45.2-APC (eBioscience #17-0454-82), CD45.2-FITC (eBioscience #11-0454-85), Gr-1-FITC (eBioscience #11-5931), Gr-1-PE (eBioscience #12-5931-81), CD11b-PECy7 (eBioscience #25-0112), CD11b-FITC (eBioscience #11-0112-82), Ly6C-PE (eBioscience #12-5932-80), Ly6G-APC-Cy7 (BioLegend #127623), Ly6G-APC (BioLegend #127613), CD3-PE (eBioscience #12-0031), CD4-APC (BioLegend #100515), CD4-PE-Cy7 (eBioscience #25-0042-82), CD8-APC (BioLegend #100721), CD8-FITC (eBioscience #11-0081-85), B220-FITC (eBioscience #11-0452), CD19-PerCP-Cy5.5 (eBioscience #45-0193), F4/80-APC (eBioscience #17-4801), CD44-FITC (BD Pharmingen #561859), CD62L-APC (BioLegend #104411), CD206-PE (BioLegend #141705) and CD49f-APC (eBioscience #17-0495). All antibodies were used 1:100. To assess cell viability, cells were incubated with either DAPI or TO-PRO3 prior to FACS analysis. Foxp3 staining was done using FOXP3 Fix/Perm Buffer Set (BioLegend) and cells were stained by Foxp3-FITC antibody (eBioscience #11-5773). All staining mixtures were analyzed on a BD LSR II flow cytometer (Becton Dickinson). Resulting profiles were further processed and analyzed using the FlowJo 8.7 software.
Microarray analysis and gene set enrichment analysis on mouse tumor tissue were conducted and analyzed as previously described by Palucka, A. K. et al. (Palucka, A. K. et al. Cell 164, 1233-1247 (2016)). […]

GPR35 [5] = molecular target: T1, GPR35; conditions: cited from earlier work
Target sequence in this assay (Q9HC97 whole entry, species assumed): as the sequence (Q9HC97 whole entry) above

Row | Molecule | antagonist activity at mouse GPR35 (mouse GPR35) | migration of Gr1+ cells toward medium with recombinant protein [3] | expression of the Ly6C and Ly6G markers (flow analysis) [4] | expression profile of the genes tested (qRT-PCR) [4] | further results
1 | CC(/C=C1\SC(=S)N(CCCC(=O)Nc2ccc(C(=O)O)c(O)c2)C1=O)=C\c1ccccc1 [ML145] | in vitro antagonist activity |  |  |  | 
2 | COc1cccc2c1c(O)c(C(=O)N(C)c1ccc(C(F)(F)F)cc1)c(=O)n2C [Tasquinimod] |  |  |  |  | survival benefit (prostate cancer): failed to show a clear survival benefit
3 | COC(=O)c1cnn(-c2ccc(F)cc2F)c1/C=N/NC(=S)NC(C)(C)C [CID2745687] | in vitro antagonist activity |  |  |  | antagonist activity at human GPR35 (GPR35 [1]): in vitro antagonist activity
4 | B1 |  | only on monocytes | did not observe any significant difference | did not observe any significant difference | migration of monocytes toward medium with recombinant protein [2]: concentration-dependent effect; expression of the Ly6C and Ly6G markers (flow analysis) ([4]; listed as recombinant CXCL17): did not show significant changes; concentration range of GPR35-CXCL17 mediated functional responses (GPR35 [5]): ~50 nM
5 | B2 |  | chemoattractants for PMN | did not observe any significant difference | did not observe any significant difference | expression of the Ly6C and Ly6G markers (flow analysis) ([4]; listed as recombinant CXCL5): did not show significant changes
